In US20240084003A1 (SIMCERE ZAIMING PHARMACEUTICAL, published 2024):

Experiments:
[1] = biological target: T1, monkey CD22 protein (ACROBiosystems, catalog number SI2-R52Ha) (monkey, UniProt F6W485 20-688); assay: ELISA, coated monkey CD22 protein, antibody 10 nM
T1 construct: commercial protein; also called monkey CD22-ECD; monkey CD22-ECD-His
T1 sequence: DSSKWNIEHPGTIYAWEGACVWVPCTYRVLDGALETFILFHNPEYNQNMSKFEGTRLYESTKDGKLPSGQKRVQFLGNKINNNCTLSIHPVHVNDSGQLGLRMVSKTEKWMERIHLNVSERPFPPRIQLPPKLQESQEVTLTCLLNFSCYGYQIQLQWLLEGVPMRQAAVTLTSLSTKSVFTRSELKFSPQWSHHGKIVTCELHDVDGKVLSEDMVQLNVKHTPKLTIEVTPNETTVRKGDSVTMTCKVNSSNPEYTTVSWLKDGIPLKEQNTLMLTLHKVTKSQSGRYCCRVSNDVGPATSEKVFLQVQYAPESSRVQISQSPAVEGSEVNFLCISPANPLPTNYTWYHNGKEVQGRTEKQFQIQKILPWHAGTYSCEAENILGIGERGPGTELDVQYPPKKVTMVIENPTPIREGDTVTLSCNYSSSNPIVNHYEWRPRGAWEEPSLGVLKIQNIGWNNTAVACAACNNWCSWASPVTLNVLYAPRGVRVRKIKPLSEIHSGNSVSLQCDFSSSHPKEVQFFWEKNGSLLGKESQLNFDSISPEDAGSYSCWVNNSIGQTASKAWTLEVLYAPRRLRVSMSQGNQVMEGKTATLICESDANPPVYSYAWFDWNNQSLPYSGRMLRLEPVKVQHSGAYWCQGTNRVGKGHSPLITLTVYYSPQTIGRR
Summary of the method: (§1)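 Direct ELISA: chimeric antibody binding to CD22 coated at 2 μg/mL, with a 37° C, 2 h antibody step and HRP/TMB detection.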

[2] = biological target: T1, monkey CD22 protein (ACROBiosystems, …); assay: ELISA, coated monkey CD22 protein, antibody 0.1 nM
Summary of the method: as §1

[3] = biological target: T1, monkey CD22 protein (ACROBiosystems, …); assay: ELISA, coated monkey CD22 protein, antibody 100 nM
Summary of the method: as §1

[4] = biological target: T1, monkey CD22 protein (ACROBiosystems, …); assay: ELISA, coated monkey CD22 protein, antibody 0.01 nM
Summary of the method: as §1

[5] = biological target: T2, CD22 on cynomolgus monkey peripheral blood B cells (cynomolgus monkey (Macaca fascicularis)); assay: FACS, cynomolgus PBMC, CD20+ B cells, antibody 1 nM
T2 construct: whole, on cells; also called cynomolgus monkey B cells
Summary of the method: (§2)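 Cynomolgus PBMC from fresh blood were isolated by Ficoll and co-stained with cross-reactive anti-human CD20 and chimeric antibody at 1, 10 or 100 nM for 1 h at room temperature. Bound antibody was detected by APC anti-human IgG Fc. Values are the percentage of antibody-positive cells within the gated CD20+ B-cell population, by FACS.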

[6] = biological target: T1, monkey CD22 protein (ACROBiosystems, …); assay: ELISA, coated monkey CD22 protein, antibody 0.001 nM
Summary of the method: as §1

[7] = biological target: T2, CD22 on cynomolgus monkey peripheral …; assay: FACS, cynomolgus PBMC, CD20+ B cells, antibody 10 nM
Summary of the method: as §2

[8] = biological target: T1, monkey CD22 protein (ACROBiosystems, …); assay: ELISA, coated monkey CD22 protein, antibody 0.0001 nM
Summary of the method: as §1

[9] = biological target: T2, CD22 on cynomolgus monkey peripheral …; assay: FACS, cynomolgus PBMC, CD20+ B cells, antibody 100 nM
Summary of the method: as §2

[10] = biological target: T1, monkey CD22 protein (ACROBiosystems, …); assay: ELISA, coated monkey CD22 protein, antibody 0.00001 nM
Summary of the method: as §1

B1: F1.62.10 (antibody, human IgG1, kappa, V domains shown)
VH: QVQLQQSGPELVKPGASVKISCKASGYEFSSIWMNWVKQRPGEGLEWIGRIFPGDGEINYNEKFKGKATLTADRSSTTAYMQLSSLTSEDSAVYFCAGWRIYYGTYGAMDYWGQGTSVTVSS
VL: DIQMTQITSSLSASLGDRVTISCRASQDIGNYLNWYQQKPDGTVKLLIYYTSRLHSGVPSRFSGSGSRTDYSLTISNLQQEDIATYFCQQGNTLPWTFGGGTKLEIKR
notes: human-murine chimeric IgG1 kappa
OD450 [1]: 0.18 OD450 | OD450 [2]: 0.07 OD450 | OD450 [3]: 0.36 OD450 | OD450 [4]: 0.05 OD450 | Proportion of chimeric antibody positive cells to B cells (%) [5]: 17% | OD450 [6]: 0.05 OD450 | Proportion of chimeric antibody positive cells to B cells (%) [7]: 19% | OD450 [8]: 0.06 OD450 | Proportion of chimeric antibody positive cells to B cells (%) [9]: 24% | OD450 [10]: 0.06 OD450

B2: F1.17.1 (antibody, human IgG1, kappa, V domains shown)
VH: QVQLKESGPGLVAPSQSLSITCTVSGFSLSRYTVHWVRQPPGKGLEWLGMIWGGGSTDYNSALKSRLSISKDNSKSQVFLKMNSLQTDDTAMYYCARPHDFDAGGFAYWGQGTLVTVSA
VL: QIVLTQSPAILSTSPGEKVTMTCSASSRVNYMYWYQQKPGSSPRLLIYDTSNLASGVPVRFSGSGSGTSYSLTISRMEAEDAATYYCQQWTSYPLTFGAGTKLELKR
notes: as for B1
OD450 [1]: 2.16 OD450 | OD450 [2]: 1.99 OD450 | OD450 [3]: 1.91 OD450 | OD450 [4]: 1.75 OD450 | Proportion of chimeric antibody positive cells to B cells (%) [5]: 60% | OD450 [6]: 0.51 OD450 | Proportion of chimeric antibody positive cells to B cells (%) [7]: 62% | OD450 [8]: 0.13 OD450 | Proportion of chimeric antibody positive cells to B cells (%) [9]: 68% | OD450 [10]: 0.07 OD450

B3: F1.172.13 (antibody, human IgG1, kappa, V domains shown)
VH: QVTLKESGPGILQSSQTLSLTCSFSGFSLSTSGMGVSWIRQPSGKGLEWLAHIYWDDDKRYNPSLKSRLTISKDTSRNQVFLKITSVDTADTATYYCARAPPPNWDEYYFDYWGQGTTLTVSS
VL: DIQMTQSPASLSASVGETVTITCRASGNIHNSLAWYQQKQGKSPQLLVHNAKTLADGVPSRFSGSGSGTQYSLKINSLQPEDFGSYYCQHFWSTPPFGGGTKLEIKR
notes: as for B1
OD450 [1]: 2.93 OD450 | OD450 [2]: 2.78 OD450 | OD450 [3]: 3.21 OD450 | OD450 [4]: 2.47 OD450 | Proportion of chimeric antibody positive cells to B cells (%) [5]: 30% | OD450 [6]: 0.82 OD450 | Proportion of chimeric antibody positive cells to B cells (%) [7]: 31% | OD450 [8]: 0.18 OD450 | Proportion of chimeric antibody positive cells to B cells (%) [9]: 34% | OD450 [10]: 0.09 OD450

B4: F1.200.11 (antibody, human IgG1, kappa, V domains shown)
VH: QNQLVQSGPELKKPGETVKISCKASGYTFTTAGMQWVQKMPGKGFKWIGWINTLSGEPKYAEDFKGRFAFSLETSATTAYLQISNLKNEDTATYFCARAYYSNLYWYFDVWGTGTTVTVSS
VL: DIVMTQSQKFMSTTVGDRVTITCKASQNVVTAVAWYQQKPGQSPKVLIYSASNRYSGVPDRFTGSGSGTDFTLTISNMHSEDLANYFCHQYSSYPFTFGSGTKLEIKR
notes: as for B1
OD450 [1]: 1.23 OD450 | OD450 [2]: 0.62 OD450 | OD450 [3]: 1.25 OD450 | OD450 [4]: 0.19 OD450 | Proportion of chimeric antibody positive cells to B cells (%) [5]: 21% | OD450 [6]: 0.08 OD450 | Proportion of chimeric antibody positive cells to B cells (%) [7]: 37% | OD450 [8]: 0.06 OD450 | Proportion of chimeric antibody positive cells to B cells (%) [9]: 56% | OD450 [10]: 0.06 OD450

B5: F1.245.2 (antibody, human IgG1, kappa, V domains shown)
VH: EVQLQQSGAELVKPGASVKLSCTGSGFNIKDYYIHWVKQRTEQGLEWMGRIDPEDGETEYAPKFQDEATITSDTSSNTAYLQLSSLTYEDTAVYYCAREAAGYFYRGSSYGYFDVWGTGTTVTVSS
VL: DFQMTQTTSFLSASLGDRVTISCSASQDISNYLNWYQQKPDGTVKLLIYYTSSLHSGVPSRFSGSGSGTDYSLTISNLEPEDIATYYCQQYSMLPYTFGGGTKLEMER
notes: as for B1
OD450 [1]: 0.06 OD450 | OD450 [2]: 0.06 OD450 | OD450 [3]: 0.08 OD450 | OD450 [4]: 0.06 OD450 | Proportion of chimeric antibody positive cells to B cells (%) [5]: 16% | OD450 [6]: 0.06 OD450 | Proportion of chimeric antibody positive cells to B cells (%) [7]: 17% | OD450 [8]: 0.06 OD450 | Proportion of chimeric antibody positive cells to B cells (%) [9]: 17% | OD450 [10]: 0.06 OD450

B6: F1.60.9 (antibody, human IgG1, kappa, V domains shown)
VH: QVQLKESGPGLVAPSQSLSITCTVSGLSLNNYGVSWVRQPPGKGLEWLGVIWGDGSTNYHSALISRLSISKDNSKSQVFLKLNSLHTDDTATYYCAINWGDYWGQGTTLIVSS
VL: DIKMTQSPSSMNASLGERVTITCKASQDINSYLSWFQQKPGKSPKILIYRANRLIDGVPSRFSGSGSGQDYSLTISSLEYEDMGIYYCLQYGVFPLTFGAGTKLELKR
notes: as for B1
OD450 [1]: 0.07 OD450 | OD450 [2]: 0.06 OD450 | OD450 [3]: 0.09 OD450 | OD450 [4]: 0.05 OD450 | Proportion of chimeric antibody positive cells to B cells (%) [5]: 16% | OD450 [6]: 0.05 OD450 | Proportion of chimeric antibody positive cells to B cells (%) [7]: 16% | OD450 [8]: 0.06 OD450 | Proportion of chimeric antibody positive cells to B cells (%) [9]: 18% | OD450 [10]: 0.06 OD450

B7: F1.192.1 (antibody, human IgG1, kappa, V domains shown)
VH: AVQLQQSGVELVRPGASVKLSCTGSDFNIKEDYIHWVKQRPEQGLEWIGWIDPENGDTEYASKFQGKATITADTSSNTAYLQLSSLTSEDTAVYYCATYGSLDYWGQGTTLTVSS
VL: DIKMTQSPSSMYAFLGERVTITCKASQGINSFLTWFQQKPGKSPKTLIYRANRLVDGVPSRFSGSGSGQDYSLTISSLEYEDVGIYYCLQYDEFPRTFGGGTKLEIKR
notes: as for B1
OD450 [1]: 0.84 OD450 | OD450 [2]: 0.53 OD450 | OD450 [3]: 1.21 OD450 | OD450 [4]: 0.19 OD450 | Proportion of chimeric antibody positive cells to B cells (%) [5]: 22% | OD450 [6]: 0.07 OD450 | Proportion of chimeric antibody positive cells to B cells (%) [7]: 30% | OD450 [8]: 0.07 OD450 | Proportion of chimeric antibody positive cells to B cells (%) [9]: 38% | OD450 [10]: 0.07 OD450

B8: F1.257.3 (antibody, human IgG1, kappa, V domains shown)
VH: QVQLQQSGPELARPGASVKLSCKASGYTFTSYGISWVKQRTGQDLEWIGEIYPKLGTTYYNEKFKDKATLTTDRSSSTAYMALRSLTSEDSAVYFCACPHYYATRGGDYWGQGTTLTVSS
VL: EIVLTQSPATLSVTPGDSVTFSCRASQSISNHLHWYQQKSHESPRLLIRYASQSISGIPSRFSGSGSGTDFTLSLSSVETEDFGVYFCQQSHSWPYTFGGGTKLEIAR
notes: human-murine chimeric IgG1 kappa; VL name legible
OD450 [1]: 0.07 OD450 | OD450 [2]: 0.06 OD450 | OD450 [3]: 0.18 OD450 | OD450 [4]: 0.05 OD450 | Proportion of chimeric antibody positive cells to B cells (%) [5]: 17% | OD450 [6]: 0.05 OD450 | Proportion of chimeric antibody positive cells to B cells (%) [7]: 20% | OD450 [8]: 0.06 OD450 | Proportion of chimeric antibody positive cells to B cells (%) [9]: 34% | OD450 [10]: 0.06 OD450

B9: F1.216.2 (antibody, human IgG1, kappa, V domains shown)
VH: QVQLQQSGPEVVRPGASVKISCKASGYAFSSSWMNWMKQRPGKALEWIGRIYPGDGDTNYSGEFKVKATLTADKSSSTAYMQLSSLTSEDSAVYFCAREGSYYSNPWYFDYWGQGTTLTVSS
VL: DVLVTQTPLSLPVSLGDQASISCRSSQSIVQSNGDTYLEWYLQKPGQSPKLLIYKVSNRFSGVPDRFSGSGSGTDFTLKISRVEAEDLGVYYCFQGSHVPFTFGSGTKLEIKR
notes: as for B1
OD450 [1]: 2.15 OD450 | OD450 [2]: 2.24 OD450 | OD450 [3]: 1.94 OD450 | OD450 [4]: 2.04 OD450 | Proportion of chimeric antibody positive cells to B cells (%) [5]: 22% | OD450 [6]: 0.91 OD450 | Proportion of chimeric antibody positive cells to B cells (%) [7]: 25% | OD450 [8]: 0.21 OD450 | Proportion of chimeric antibody positive cells to B cells (%) [9]: 34% | OD450 [10]: 0.09 OD450
